This is an account of results in patent publication US10508147B2, “Anti-nodal antibodies and methods of using same” (ANN AND ROBERT H. LURIE CHILDREN'S HOSPITAL OF CHICAGO, priority 2014, dated 2019).

The target in experiment [1] is T1, hNodal(44-67) peptide (Homo sapiens, UniProt Q96S42).
T1 construct: made in house; host or cells: chemical synthesis (Fmoc solid phase)
As to the kind of experiment: ELISA screening of hybridoma supernatants on coated hNodal(44-67) and hNodal(44-67)E49A-E50A. Format: binding. The following applies: peptides coated at 330 nM; supernatants at 5.0 μg/mL (33 nM). The method, then:
(§1) Screening of hybridoma supernatants was carried out by ELISA coating the hNodal(44-67) BSA-conjugated peptide. Nine clones were positive. The pre-selected hybridoma supernatants were screened using in parallel hNodal(44-67) and its mutated variant hNodal(44-67)E49A-E50A. The assay was performed coating the unconjugated peptides at 330 nM and testing the hybridoma supernatants at a total protein concentration of 5.0 μg/mL (33 nM).
(§2) For hybridoma supernatants screening, hNodal(44-67) and hNodal(44-67)E49A-E50A were coated at 330 nM diluted in PBS on polystyrene conical flat bottom 96-well plates at 4° C. overnight (100 μL/well). After incubation, the coated wells were washed three times with PBS containing 0.005% Tween-20 (PBS-T) and non-specific binding sites were blocked by incubating with 1% BSA in PBS (300 μL/well) for 1 h at 37° C. After washing three times with PBS-T, supernatants of hybridomas diluted in PBS at 33 nM were incubated for 1 h at 37° C. (100 μL/well). […] After incubation and three washes with PBS-T, bound antibodies were detected by adding 100 μL/well of freshly prepared 0-phenylenediamine (0.4 mg/mL) containing H2O2 (0.4 mg/mL) in 0.1 M citrate buffer (pH 5.2) (SIGMAFAST™ OPD tablet Sigma-Aldrich). The peroxidase reaction was stopped after 5 min with 50 μL/well of 2.5 M H2SO4 and the optical density was measured at 490 nm, using a microplate reader. […]
(In general: ELISA stands for enzyme-linked immunosorbent assay.)

Experiment [2] deals with hNodal(44-67) peptide. Described as above. It counts as binding, human. The following applies: ELISA. The procedure:
as §1, §2

In a further experiment the test system is C8161 melanoma cells. As to the kind of experiment: Soft agar clonogenic / anchorage independent growth assay. Format: cell-based, human. The settings on record: three weeks in soft agar, vs untreated and IgG control. The method, then: Untreated cells, or cells treated with either IgG Control or 3D1 anti-Nodal antibody for 72 hours were cultured in soft agar for three weeks (soft agar clonogenic assay). […] C8161 cells were treated with either 4 μg/ml of either Santa Cruz (SC), or 3D1 function blocking anti-Nodal antibodies, or IgG Control and cultured in three dimensional cultures for 24 hours to measure their ability to engage in vasculogenic mimicry (VM).
C8161 melanoma cells (5,000 cells/well) were suspended in 0.35% agarose, RPMI 1640; 10% serum with of either 4 μg/ml mouse IgG control (Jackson ImmunoResearch, West Groove, Pa.) or 3D1 mAb (2.8 μg/ml) and were then overlayed onto a solidified layer of 0.5% agar; RPMI 1640; 10% serum in 6-well dishes. Cell clusters were allowed to form and were scored (50 cells or larger clusters) after 3 weeks in culture. Triplicate wells were averaged from separate experiments and presented as a percentage (mean±SEM) of IgG control.

Experiment [3] concerns the target T2, recombinant Nodal (Homo sapiens, UniProt Q96S42).
T2 sequence (Q96S42 238-347): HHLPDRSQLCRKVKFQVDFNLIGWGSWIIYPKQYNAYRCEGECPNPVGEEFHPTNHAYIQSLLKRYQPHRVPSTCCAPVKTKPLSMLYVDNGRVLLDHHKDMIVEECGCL
As to the kind of experiment: Sandwich ELISA to detect Nodal with 3D1 as capture antibody. More on the design: E. coli derived His238 Leu347, with an N-terminal Met; purchased R&D Systems. The settings on record: rabbit monoclonal anti-Nodal for detection. An excerpt:
A typical calibration curve was obtained using a sandwich ELISA assay developed to detect Nodal (detection limit 50 pg/well) (See FIG. 22). The assay used monoclonal anti-Nodal antibody (designated 3D1) to coat an ELISA dish to capture rNodal (recombinant Nodal) from solutions with different concentrations of rNodal and a second, rabbit monoclonal anti-Nodal antibody to detect the captured rNodal. The resulting captured rNodal-antibody complex was then detected with an anti-rabbit antibody conjugated to horseradish peroxidase and a QuantaRed enhanced chemifluorescent horseradish peroxidase substrate.
By epitope mapping of commercially available Nodal antibodies and 3D1 mAb, the latter was chosen as the capture antibody for coating ELISA dishes, while a rabbit monoclonal anti-Nodal (Abcam) served for detecting the bound Nodal. The immune complex was subsequently quantified using a horseradish peroxidase-conjugated anti-rabbit antibody in conjunction with QuantaRed enhanced chemifluorescent horseradish peroxidase substrate (ThermoFisher). The established sandwich ELISA assay detects Nodal as a recombinant protein in conditioned media from human embryonic stem cells and in biological fluids with a detection limit (calculated using recombinant Nodal) of […]. Human serum samples from breast cancer patients were purchased from BioOptions (Brea, Calif.).

The target of experiment [4] is T2, recombinant Nodal. As to the kind of experiment: SPR dose-dependent binding of human recombinant Nodal to 3D1 immobilized on the CM5 sensor chip. More on the design: E. coli derived His238 Leu347, with an N-terminal Met; purchased R&D System 3218ND; host or cells: E. coli. The following applies: rhNodal injected, read-out: estimated KD. An excerpt:
Dose-dependent binding of human recombinant Nodal to 3D1 antibody immobilized on the CM5 sensor chip was characterized.

Entries after “also recorded” stand apart in the source; their conditions may differ.

B1: 3D1: mouse monoclonal anti-Nodal antibody raised against hNodal(44-67); light chain SEQ ID NO:1, heavy chains SEQ ID NO:2 and 3 (protein)
light: DIKMTQSPASLSASVGETVTITCRASGNIHNYLAWYQQKQGKSPQLLVYNAKTLADGVPSRFSGSGSGTQYSLKINSLQPEDFGSYYCQHFWSTPHVRCWDQAGTETEAW
heavy 1: VKLVESGGGLVKPGGSLKLSCAASGFTFSSYAMSWVRQTPEKRLEWVASISSGGCTYYPDSVKGRFTISRDNARNILYLQMSSLRSEDTAMYYCARGSMITADGNSLLLCYGLLGSRNLXHR
heavy 2: VKLVESGGGLVQPGGSMKLSCVASGFTFRNYWMSWVRQSPEKGLEWVAEIRLKSDNYAARYAESVKGKFTISRDDSKSRLYLQMNSLRAEDTGIYYCTGIRRFAYWGQGTL
modifications: not fully specified; (120)..(120) Xaa can be any naturally occurring amino acid
On to B1, for which, in the experiment with hNodal(44-67) peptide [1], the “recognition of the immobilized antigen hNodal(44-67)” value is recorded as “recognized the immobilized antigen”. Besides, the “recognition of wild-type hNodal peptide versus E49A-E50A mutated variant” value in the experiment with hNodal(44-67) peptide [2] was “displayed selectivity for wild type Nodal peptide; also recorded: much better than the mutated variant; also recorded: recognizes less robustly the mutated peptide variant”. Moreover, the “clonogenicity / anchorage independent growth in soft agar” value is recorded as “a decrease in clonogenicity” in the experiment with C8161 melanoma cells and “reduced ability to form non-adherent spheroidal clusters; also recorded: significant reduction in anchorage independent growth” in the experiment with C8161 melanoma cells (listed as 3D1 mAb). Also, the “detection limit for Nodal” value turned out to be 50 pg/well with recombinant Nodal [3] and 75 pg/well with recombinant Nodal [3] (listed as 3D1 mAb). Further, the Kd (usually the free concentration of one partner at which half of the binding sites on the other are occupied at equilibrium, for simple one-to-one binding) with recombinant Nodal [4] was 6.6 nM.
